Assay results from patent US20200247902A1.

Biological target: bovine submaxillary mucin (BSM) (bovine)
Experiment: ELISA on BSM-coated wells, 0-100 nM antibody; periodate-treated signal subtracted (periodate-sensitive STn binding curve)

EC50: 4.2 nM
B1: SIA01 (antibody, V domains shown)
VH: EVQLVQSGAEVKKPGASVKVSCKASGYTFTDHAIHWVRQAPGQGLEWMGYFSPGNDDIKYNEKFRGRVTMTADKSSSTAYMELRSLRSDDTAVYFCKRSLSTPYWGQGTLVTVSS
VL: DIVMTQSPDSLAVSLGERATINCKSSQSLLNRGNHKNYLTWYQQKPGQPPKLLIYWASTRESGVPDRFSGSGSGTDFTLTISSLQAEDVAVYYCQNDYTYPYTFGQGTKVEIK
